Test results published in patent US20250388664A1 (BIOARCTIC, published 2025).
Like-named read-outs stand apart in the source and are kept apart here.

T1: h/m apical domain chimera (SEQ ID NO:112) (human/mouse chimera)
T1 construct: also called chimeric TfR1 consisting of human apical domain grafted on mouse TfR1 ectodomain
T1 chain: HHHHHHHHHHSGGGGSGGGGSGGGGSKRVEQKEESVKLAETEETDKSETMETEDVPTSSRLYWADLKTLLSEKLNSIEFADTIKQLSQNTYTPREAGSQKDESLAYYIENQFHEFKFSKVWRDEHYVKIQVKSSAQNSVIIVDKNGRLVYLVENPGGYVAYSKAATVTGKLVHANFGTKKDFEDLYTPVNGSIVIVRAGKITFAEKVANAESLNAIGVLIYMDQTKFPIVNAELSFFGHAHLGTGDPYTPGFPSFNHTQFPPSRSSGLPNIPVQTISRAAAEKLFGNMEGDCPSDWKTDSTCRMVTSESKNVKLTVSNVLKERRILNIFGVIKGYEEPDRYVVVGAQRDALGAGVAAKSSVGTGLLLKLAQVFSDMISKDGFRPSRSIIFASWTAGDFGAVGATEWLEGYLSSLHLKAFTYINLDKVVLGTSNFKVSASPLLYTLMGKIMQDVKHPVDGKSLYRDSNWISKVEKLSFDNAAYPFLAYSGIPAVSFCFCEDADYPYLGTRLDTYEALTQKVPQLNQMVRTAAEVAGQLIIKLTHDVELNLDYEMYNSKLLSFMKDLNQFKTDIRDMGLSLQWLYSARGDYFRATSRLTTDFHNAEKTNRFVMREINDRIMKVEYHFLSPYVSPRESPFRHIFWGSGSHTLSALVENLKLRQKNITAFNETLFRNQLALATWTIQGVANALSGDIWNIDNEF

T2: h/m helical domain chimera (SEQ ID NO:113) (human/mouse chimera, UniProt Q62351 90-763 (mouse entry))
T2 construct: also called chimeric TfR1 consisting of human helical domain grafted on mouse TfR1 ectodomain
T2 chain: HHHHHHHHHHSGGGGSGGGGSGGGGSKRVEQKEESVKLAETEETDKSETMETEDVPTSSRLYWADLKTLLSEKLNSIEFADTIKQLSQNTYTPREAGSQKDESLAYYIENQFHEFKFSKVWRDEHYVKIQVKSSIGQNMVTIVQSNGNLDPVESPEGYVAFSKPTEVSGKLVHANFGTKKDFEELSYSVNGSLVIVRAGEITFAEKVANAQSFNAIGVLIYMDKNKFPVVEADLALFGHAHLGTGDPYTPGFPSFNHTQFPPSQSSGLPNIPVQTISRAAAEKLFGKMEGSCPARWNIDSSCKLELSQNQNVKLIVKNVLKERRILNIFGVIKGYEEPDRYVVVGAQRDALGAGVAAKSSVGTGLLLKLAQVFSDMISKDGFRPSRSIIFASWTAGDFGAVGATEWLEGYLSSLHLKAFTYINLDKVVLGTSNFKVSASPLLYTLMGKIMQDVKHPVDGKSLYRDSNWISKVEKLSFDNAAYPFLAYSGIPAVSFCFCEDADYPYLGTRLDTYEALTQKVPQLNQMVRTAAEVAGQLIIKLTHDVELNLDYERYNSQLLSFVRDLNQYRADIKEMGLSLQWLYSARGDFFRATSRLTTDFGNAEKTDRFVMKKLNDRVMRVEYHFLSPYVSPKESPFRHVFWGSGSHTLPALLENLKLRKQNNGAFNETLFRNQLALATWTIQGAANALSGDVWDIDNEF

T3: truncated cTfR1 of SEQ ID NO:123 (cynomolgus monkey, UniProt Q5RDH6 122-760 (Pongo abelii entry))
T3 construct: also called cynomolgus TfR1
T3 chain: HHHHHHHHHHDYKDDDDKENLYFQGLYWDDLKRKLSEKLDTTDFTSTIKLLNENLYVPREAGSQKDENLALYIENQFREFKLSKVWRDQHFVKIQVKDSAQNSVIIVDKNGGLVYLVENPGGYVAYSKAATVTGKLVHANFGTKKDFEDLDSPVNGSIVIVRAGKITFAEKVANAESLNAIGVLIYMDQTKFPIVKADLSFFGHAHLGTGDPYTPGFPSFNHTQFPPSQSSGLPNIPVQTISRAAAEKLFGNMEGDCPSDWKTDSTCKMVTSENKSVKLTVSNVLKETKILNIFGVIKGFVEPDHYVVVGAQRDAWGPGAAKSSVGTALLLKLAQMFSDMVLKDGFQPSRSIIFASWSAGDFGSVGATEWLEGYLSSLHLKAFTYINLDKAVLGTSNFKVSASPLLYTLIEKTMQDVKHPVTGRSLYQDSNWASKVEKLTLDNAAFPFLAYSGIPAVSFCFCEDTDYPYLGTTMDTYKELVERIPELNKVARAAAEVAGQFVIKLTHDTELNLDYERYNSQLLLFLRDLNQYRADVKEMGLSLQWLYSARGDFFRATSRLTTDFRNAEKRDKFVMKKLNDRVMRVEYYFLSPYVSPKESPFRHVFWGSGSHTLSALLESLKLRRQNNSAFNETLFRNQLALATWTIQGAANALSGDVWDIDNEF


Columns and labels:
[1] = target: T1, h/m apical domain chimera (SEQ ID …); assay: indirect ELISA: plate coated with 1 µg/ml h/m apical domain chimera, mouse IgG titrated, anti-mouse IgG-HRP; x axis printed as 'TfR (ng/ml)'
Protocol: Plasma samples serially diluted from a starting dilution of 1/450 or hybridoma supernatants diluted 1/2 were added to the plates (50 μl/well; dilution buffer: PBS with 0.1% BSA and 0.05% TWEEN®-20) and incubated for 2 h at room temperature and then the plates were washed four times. […] After another wash (as above), 50 μl/well TMB substrate (K-Blue® Aqueous, Neogen) was added, and the reaction was stopped after 10-15 min with 50 μl/well of 0.5 M H₂SO₄. The optical density at 450 nm was read using a plate reader (Tecan). The endpoint titers were defined as the dilution above the average of the blank wells (background) plus 3 standard deviations of the blank wells.
(§1) In the ELISA experiment, human, mouse or three different chimeric TfR1 receptors were used to coat ELISA plates (FIGS. 30A-30E). The ELISA protocol was slightly modified as follows from the indirect ELISA described in Example 15. […] The coated plates were then blocked. Dilution series of mouse IgG of the analyzed antibodies were prepared in PBS and incubated on the ELISA plates. Unbound antibodies were then washed off before incubating wells with a HRP-conjugated secondary, anti-mouse-IgG for 1 h. Plates were then washed again before addition of HRP substrate TMB for development and detection of antibody binding to the wells. TMB development was stopped by adding 0.5 M H₂SO₄ to the wells and ELISA responses measured as the OD at 450 nm in an ELISA plate reader.

[2] = target: T2, h/m helical domain chimera (SEQ ID …); assay: indirect ELISA: plate coated with 1 µg/ml h/m helical domain chimera, mouse IgG titrated, anti-mouse IgG-HRP; x axis printed as 'TfR (ng/ml)'
Protocol: as §1

[3] = target: T4, truncated hTfR1 of SEQ ID NO:122 (human, UniProt P02786 122-760); assay: SPR, TfR1 amine-coupled, Fab injected, 1:1 fit
T4 construct: also called human TfR1; Human TfR1
Protocol: (§2) The interaction was measured using the single cycle kinetics method with a contact time of 120 s at a flow rate of […] followed by a dissociation time of 600 s. Regeneration of the surface between cycles was done by injecting 3M MgCl₂. The binding data were fitted to a 1:1 interaction model. The Fabs were diluted in HBS-EP+ (Cytiva, #BR100669). Experiments were performed at 25° C.

[4] = target: T3, truncated cTfR1 of SEQ ID NO:123; assay: SPR, TfR1 amine-coupled, Fab injected, 1:1 fit
Protocol: as §2

[5] = target: T4, truncated hTfR1 of SEQ ID NO:122; assay: SPR, TfR1 amine-coupled, Fab injected, 1:1 fit; remark: listed apart in the source
Protocol: (§3) Binding of the purified Fabs to human and cynomolgus TfR1 was evaluated using either SPR (FIG. 44) or indirect ELISA (FIG. 45). For SPR, a Biacore 8K instrument (Cytiva) was used. […] The Fabs were injected over the chip using a 2-fold dilution series in four steps starting at 100 nM. The interaction was measured using the single cycle kinetics method with a contact time of 120 s at a flow rate of 30 μl/min followed by a dissociation time of 1000 s. Regeneration of the surface between cycles was done by injecting 3M MgCl₂. The binding data was fitted to a 1:1 interaction model. The Fabs were diluted in HBS-EP+ (Cytiva, #BR100669). Experiments were performed at 25° C.

[6] = target: T3, truncated cTfR1 of SEQ ID NO:123; assay: SPR, TfR1 amine-coupled, Fab injected, 1:1 fit
Protocol: as §3

[7] = target: T5, ectodomain of human TfR1 (His10-hTfR1; SEQ ID NO:110) (human, UniProt P02786 89-760); assay: indirect ELISA: plate coated with 1 µg/ml hTfR1 ectodomain, Fab in 1:3 serial dilution, anti-human IgG F(ab')2-HRP
T5 construct: also called ectodomain of hTfR1
Protocol: For the indirect ELISA, half area 96-well plates (Corning, #3690) were coated with 1 μg/ml recombinant ectodomain of hTfR1 (SEQ ID NO:110) in PBS overnight at 4° C. The coated plates were blocked using Pierce protein-free blocking solution (Thermo Fisher Scientific, #37572) for 1 h at room temperature with shaking and washed four times in PBS containing 0.1% TWEEN-20. Serial dilutions (1:3) of various expressed constructs in incubation buffer (1% BSA, 0.1% TWEEN-20 in PBS) were incubated for 1 h at room temperature. […] Following four wash steps, K-Blue® Aqueous TMB substrate (Neogen, #331177) was added to the wells for 15 min at room temperature before the reaction was stopped with 1:1 dilution of 0.5 M H₂SO₄. The optical density at 450 nm was recorded (Spark, Tecan) and background signal was subtracted before analysis.

Row | binding result [1] | binding result [2] | Kd [3] | koff [3] | kon [3] | Kd [4] | Kd [5] | Kd [6] | EC50 (read off the curve) [7] | Binder
1 | no binding (tested: about 600 ng/ml) | no binding (tested: about 600 ng/ml) | – | – | – | – | – | – | – | 24B4 (antibody, V domains shown, also called mouse antibody 24B4; clone 24B4) VH: EVQLQQFGAELVKPGTSVKISCKASGYTFTDYNMDWVKQGHGKGLEWIGDINPNYDTTSYSQKFKGKATLTVDKSSSTAYMELRSLTSEDTAVYYCARSEAGNYYWYFDVWGAGTTVTVSS VL: DIVMSQSPSSLAVSVGEKVTMSCKSSQSLLYSSNRKNYLAWYRQKPGQSPKLLIYWASTRESGVPDRFTGSGSGTDFTLTISSVKAEDLAVYSCQQYYNYPYTFGGGTKLEIK
2 | – | – | 3.2 nM | 0.0045 s⁻¹ | 1.2e+06 M⁻¹ s⁻¹ | 5.8 nM | 10 nM | 12 nM | ~0.3 nM | h26D3-Fab (Fab, V domains shown, His-tagged Fab from ExpiCHO; also called humanized 26D3 Fab) VH: EVQLVQSGAEVKKPGSSVKVSCKASGYIFTDYNMDWVRQAPGQGLEWIGDINPDYDTTSYNEKFKGRATLTVDKSTSTAYMELSSLRSEDTAVYYCARGGYSGSSYYHPMDYWGQGTLVTVSS VL: DIQMTQSPSSVSASVGDRVTITCKSSQSLLYSTNQKNYLAWYQQKPGKAPKLLIYWASTRESGVPSRFSGSGSGTDFTLTISSLQPEDFATYYCQQYFIYPRTFGQGTKVEIK
